The record followed here is US20150087596A1.

In test [1] the target is human Nav1.2 (sodium channel protein type 2 subunit alpha) (human) (UniProt Q99250). In words: cell-based or functional assay.
The target in test [2] is human Nav1.7 (sodium channel protein type 9 subunit alpha) (human) (UniProt Q15858). Briefly: cell-based or functional assay.

As for recombinant Huwentoxin-IV (peptide), the IC50, veratridine-induced depolarization inhibition assay in test [1] is 342 nM. In test [2], the IC50, veratridine-induced depolarization inhibition assay was determined as 159 nM and the ratio of IC50 for Nav1.2 to IC50 for Nav1.7 amounted to 2.14.
